5 molecules from PMC9876797, “Structures of the holo CRISPR RNA-guided transposon integration complex” (Nature, 2022) can be followed below.

Test [1] deals with T1, ShCAST transpososome (TnsC in complex with TnsB, TniQ, Cas12k and S15) (Scytonema hofmannii, UniProt A0A8J0PCL3).
T1 construct: recombinant proteins from E. coli, TwinStrep-SUMO vectors; assembled on sgRNA and strand-transfer DNA; about 961 kDa; 12 TnsC (major) or 13 TnsC (minor); S15 from E. coli K-12 MG1655; with Transposase TnsB; TniQ family protein TniQ; CRISPR-associated effector Cas12k; Small ribosomal subunit protein uS15 (Escherichia coli K-12 MG1655)
T1 sequence (A0A8J0PCL3 entry or part of it): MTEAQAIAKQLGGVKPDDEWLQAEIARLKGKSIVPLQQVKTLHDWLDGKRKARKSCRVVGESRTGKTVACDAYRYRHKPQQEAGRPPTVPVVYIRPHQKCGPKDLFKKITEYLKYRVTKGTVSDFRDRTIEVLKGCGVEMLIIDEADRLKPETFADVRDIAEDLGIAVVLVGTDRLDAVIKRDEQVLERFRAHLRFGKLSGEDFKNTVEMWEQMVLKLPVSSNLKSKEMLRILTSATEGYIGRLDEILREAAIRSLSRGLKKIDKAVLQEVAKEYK
T1 sequence (A0A979HMQ2 entry or part of it, further chain): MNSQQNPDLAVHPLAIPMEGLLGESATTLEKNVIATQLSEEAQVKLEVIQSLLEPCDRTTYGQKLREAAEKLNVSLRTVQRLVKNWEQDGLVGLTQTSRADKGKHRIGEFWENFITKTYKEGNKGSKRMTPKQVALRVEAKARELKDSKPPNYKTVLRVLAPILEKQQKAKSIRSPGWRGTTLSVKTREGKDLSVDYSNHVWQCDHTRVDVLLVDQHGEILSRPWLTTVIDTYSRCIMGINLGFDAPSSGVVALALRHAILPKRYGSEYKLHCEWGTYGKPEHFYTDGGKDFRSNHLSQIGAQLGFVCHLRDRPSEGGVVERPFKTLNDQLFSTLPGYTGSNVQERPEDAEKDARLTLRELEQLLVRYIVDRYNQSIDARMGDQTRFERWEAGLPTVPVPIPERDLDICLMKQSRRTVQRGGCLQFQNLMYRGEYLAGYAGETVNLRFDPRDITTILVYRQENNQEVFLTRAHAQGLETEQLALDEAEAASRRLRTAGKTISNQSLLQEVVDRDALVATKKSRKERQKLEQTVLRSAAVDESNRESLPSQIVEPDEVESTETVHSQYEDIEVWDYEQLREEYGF
T1 sequence (A0A8J0PCL5 entry or part of it, further chain): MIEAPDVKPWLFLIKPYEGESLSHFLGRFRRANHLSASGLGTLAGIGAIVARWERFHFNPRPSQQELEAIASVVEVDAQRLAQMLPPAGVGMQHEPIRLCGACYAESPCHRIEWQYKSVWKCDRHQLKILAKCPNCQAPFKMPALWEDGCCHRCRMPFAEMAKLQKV
T1 sequence (A0A8M0FGU0 entry or part of it, further chain): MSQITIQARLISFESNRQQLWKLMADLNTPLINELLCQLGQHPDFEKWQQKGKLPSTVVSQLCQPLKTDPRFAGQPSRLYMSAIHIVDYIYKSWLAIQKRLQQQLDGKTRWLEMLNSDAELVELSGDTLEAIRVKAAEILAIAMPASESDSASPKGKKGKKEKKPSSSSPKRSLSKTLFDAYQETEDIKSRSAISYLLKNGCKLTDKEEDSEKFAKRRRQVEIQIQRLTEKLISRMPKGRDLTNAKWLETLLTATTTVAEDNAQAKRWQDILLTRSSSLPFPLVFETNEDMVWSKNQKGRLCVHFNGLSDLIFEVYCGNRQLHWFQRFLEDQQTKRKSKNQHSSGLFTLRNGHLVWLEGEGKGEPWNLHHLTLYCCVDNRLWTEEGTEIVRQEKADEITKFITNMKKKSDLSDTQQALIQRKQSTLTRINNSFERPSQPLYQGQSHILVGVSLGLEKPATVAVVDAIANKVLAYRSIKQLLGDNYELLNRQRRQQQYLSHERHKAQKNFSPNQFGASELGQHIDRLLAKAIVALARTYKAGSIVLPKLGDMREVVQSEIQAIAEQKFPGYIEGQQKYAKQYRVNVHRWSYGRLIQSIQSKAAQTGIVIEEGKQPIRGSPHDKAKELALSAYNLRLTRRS
In words: cryo-EM structure. In kind it is binding. Conditions: ATP with Mg2+ in all TnsC protomers; 1 mM ATP, 15 mM MgCl2, pH 7.5; also minor configuration 8EA4.

Test [2] addresses TnsC (ShCAST AAA+ regulator) (Scytonema hofmannii).
Target sequence in this assay (A0A8J0PCL3 entry or part of it): as the sequence (A0A8J0PCL3 entry or part of it) above
The target in test [3] is TnsB (ShCAST transposase), wild type (Scytonema hofmannii). Kind of test: cryo-EM structure; ShCAST transpososome assembled stepwise on streptavidin beads through desthiobiotinylated target-pot DNA (Cas12k-sgRNA, S15, TniQ, TnsC, 1 mM ATP, then TnsB with donor-pot DNA), 37 °C, 20 mM HEPES pH 7.5, 250 mM KCl, 15 mM MgCl2, eluted with biotin; major (12 TnsC) and minor (13 TnsC) configurations from one data set.

The target in test [4] is TnsC (ShCAST AAA+ regulator) (Scytonema hofmannii). The test is described as above.

Values joined by “and” are separate entries in the source; they are usually repeats but may differ in a detail not shown here. Equal entries are not always repeated.

As to `Nc1ncnc2c1ncn2[C@@H]1O[C@H](COP(=O)(O)OP(=O)(O)OP(=O)(O)O)[C@@H](O)[C@H]1O` [ATP], the cryo-EM structure result in test [1] is listed as “This improved map demonstrates that ATP is bound to all protomers”.

Turning to “TnsB (ShCAST transposase), wild type (enzyme)”, in test [2], the on-target percentage of in vitro transposition (Illumina sequencing), in the absence of S15 stood at 69% and the on-target percentage of in vitro transposition (Illumina sequencing), with S15 was 99%. In test [3], the stoichiometry N (usually a count of units in the complex or per binding partner) amounted to 4.

On to TnsB R432A (enzyme), for which the on-target percentage of in vitro transposition (Illumina sequencing), in the absence of S15 in test [2] was less than 6%.

The molecule TnsB Y439A (enzyme) gave an on-target percentage of in vitro transposition (Illumina sequencing), in the absence of S15 in test [2] of less than 6%.

For the molecule “TnsC (ShCAST AAA+ regulator) (natural protein)”, the stoichiometry N in test [4] is 12 and 13.
